{"source": "the DeepSol protein solubility set"}
{"assay": "soluble on expression in E. coli; label from the status in PepcDB or PDB records"}
{"sequence": "MSHSAKKALLPLLAVATLAGLAGCATETSTALPVQQVESVNRPYSGVRSPIAVGKFDNRSSYMRGIFSDGVDRLGGQAKTILITHLQQTNRFNVLDRDNMSEIQQEAAIKGQAQRLKGADYVVTGDVTEFGRKEVGDRQLFGILGRGKSQIAYAKVALNIVNISTSEVVYSTQGAGEYALSNREVIGFGGTASYDSTLNGKVLDLAMREAVNKLVNAVDSGAWKPQNQ", "soluble on expression in E. coli": "not soluble"}
{"sequence": "MSIAEFAYKEKPETLVLFDVDGTLTPARLTVSEEVRKTLAKLRNKCCIGFVGGSDLSKQLEQLGPNVLDEFDYSFSENGLTAYRLGKELASQSFINWLGEEKYNKLAVFILRYLSEIDLPKRRGTFLEFRNGMINVSPIGRNASTEERNEFERYDKEHQIRAKFVEALKKEFPDYGLTFSIGGQISFDVFPAGWDKTYCLQHVEKDGFKEIHFFGDKTMVGGNDYEIFVDERTIGHSVQSPDDTVKILTELFNL", "soluble on expression in E. coli": "soluble"}
{"sequence": "MSIIKKIVFKRFNSTLKKTALHDLHVSLGGTMVPYAGYSMPVLYKGQTHIESHNWTRTNAGLFDVSHMLQSKLSGPHSVKFLQRVTPTDFNALPVGSGTLSVLLNPQGGVVDDTIITKENDDNEFYIVTNAGCAERDTEFFHDELQNGSTLDCQWKIIEGRSLLALQGPKAKDVLEPLLSKTAPGKDLKELFFGQRHEFALKDGSLVQIARGGYTGEDGFEISIANEKAVEFAEQLLANPVMKPIGLAARDSLRLEAGMCLYGHELDESITPVEAALNWVISKSRRDLVDQKYWFNGYAKIMDQLNNKTYSKVRVGFKYLKKGPAARNGVKIFLPDAETEVGLVTSGSASPTLNNINIGQAYVQKGYHKKGTKLLVQVRNKFYPIELAKMPLVPTHYYKQ", "soluble on expression in E. coli": "not soluble"}
{"sequence": "MSILRIHAREIFDSRGNPTVEVDLYTAKGLFRAAVPSGASTGIYEALELRDNDKTRFMGKGVSQAVEHINKTIAPALVSKKVNVVEQEKIDKLMIEMDGTENKSKFGANAILGVSLAVCKAGAVEKGVPLYRHIADLAGNPEVILPVPAFNVINGGSHAGNKLAMQEFMILPVGASSFREAMRIGAEVYHNLKNVIKEKYGKDATNVGDEGGFAPNILENKEALELLKTAIAKAGYTDQVVIGMDVAASEFYRSGKYDLDFKSPDDPSRYITPDQLADLYKSFVQNYPVVSIEDPFDQDDWGAWQKFTASAGIQVVGDDLTVTNPKRIAKAASEKSCNCLLLKVNQIGSVTESLQACKLAQSNGWGVMVSHRSGETEDTFIADLVVGLCTGQIKTGAPCRSERLAKYNQILRIEEELGSKAKFAGRSFRNPLAK", "soluble on expression in E. coli": "soluble"}
{"sequence": "MSIQNISFLGAGSIAEAIIGGLLHANVVKGEQITVSNRSNETRLQELHKKYGVKGTHNKKELLTDANILFLAMKPKDVAEALTPFKEYINNNVLIISLLAGVSTDSIRKLLQKDVPIIRAMPNTSAAILKSATAISPSKHATAEHIRTATSLFETIGLVSVVEEEDMHAVTALSGSGPAYIYYVVEAMEEAAKKIGLKEDVAKSLILQTMIGAAEMLKASDKHPSILRKEITSPGGTTEAGIEVLQEHKFQQALISCITQATKRSHNLGKTLEQLTKEKLEHHHHHH", "soluble on expression in E. coli": "soluble"}
{"sequence": "MSIRIIPQDELGSSEKRTADMIPPLLFPRLKNLYNRRAERLRELAENNPLGDYLRFAALIAHAQKVVLYDHPLEMDLTARIKEASAQGKPPLDIHVLPRDKHWQKLLMALIAELKPEMSGPALAVIENLEKASTQELEDMASALFASDFSSVSSDKAPFIWAALSLYWAQMANLIPGKARAEYGEQRQYCPVCGSMPVSSMVQIGTTQGLRYLHCNLCETEWHVVRVKCSNCEQSGKLHYWSLDDEQAAIKAESCDDCGTYLKILYQEKEPKVEAVADDLASLVLDARMEQEGYARSSINPFLFPGEGE", "soluble on expression in E. coli": "not soluble"}
{"sequence": "MSIRILPENEIKPSASAFEIPPLLFANPKNLYTRRAKRLRELAKNNPLRDYLEFAAHLVDIQLTLLETAPIGNYAEKLTAYLTENQGQKPLNKQQFARDEKWLELLLALIKQCKPYATGAILTTLEFLEKASYAELNNLADHLLNERYEQVSPDQSVFIWLALSLYWTQLAQQLPRHTQAEIGERHTCPVCGSAPITSVIHLDKTQGLRYLHCALCESEWNMTRAQCSNCDESGDLNYWSFDTVEAPIKAESCGDCHSYLKVLYQEKDPYVEPLADDLASLMLDIEMEQKGFVRSGLNPFLFSIE", "soluble on expression in E. coli": "not soluble"}
{"sequence": "MSKAAKKKSSKKRSGSEAAQFDQKTIQEFKEAFGIMDQNKDGIIDKSDLKDLYASMGQIAPDSQIDAMIKEASGPINFTVFLTLFGERLTGTDPEATIVGAFAMFDKKDCGKIKEDDLIKILQNKRGEPLDEDEVKAMYKGKPPIEGGEVDYKAFAHLITTGAQDELASA", "soluble on expression in E. coli": "not soluble"}
{"sequence": "MSKFPVPLRTIGGLRPSTTAAISAANIGFTQSSRALSTGAAAKSSGLVGQVARQYPNAAAFSIKQVRLYSSGNLPKHNRVALPALSPTMELGTVVSWQKKEGDQLSEGDLLCEIETDKATMGFETPEEGYLAKILIQEGSKDVPIGKLLCIIVDNEADVAAFKDFKDDGASSGGSAPAAEKAPEPAKPAASSQPSPPAQMYQAPSVPKSAPIPHSSSGRVSASPFAKKLAAENGLDLSGVSGSGPGGRILASDLSQAPAKGATSTTTQAVSGQDYTDIPLSNMRKTIAKRLTESKSTIPHYYLTSEIQLDTLLQVREKLNGLLAKGTSGQATKISINDFIIKASALACQRVPEANSYWMDSFIRENHHVDVSVAVSTPAGLITPIIFNAHAKGLATIASEIVELAQRAREGKLQPHEFQGGTFTVSNLGMFGSVSDFTAIINPPQSCILAIGGASDKLVPDEAEGYKKIKTMKVTLSCDHRTVDGAVGAVWLRHFKEFLEKPHTMLL", "soluble on expression in E. coli": "not soluble"}
{"sequence": "MSKIETPVMTSLQTTAEKMMKDLNVPGAAVAVIKDGEVIISEGFGYRNIETKEAVTPNTRFAIGSSTKAFGTLSLSLLAQQKKFNWDTPIQSYIPNFTLSELLASSQVTGRDLASHRTGVSRHEALWYSSSLSRKDLVEKIKHLPLDAPFRTAFLYNNLMYATISYIVENITNQTWEQYTTEHILEPLNMRHTNFSVNDSQTTDDYALPYIENDGEIKAVPFRNIDTVGAAGCINSTIEDMANWVLLHLNEGKFGDHELISSELLQQMYTPHNSIPDQPVLSLPESPLNSYGLGWFISAYRGKKVIHHGGNIDGFSALVSFIPTENIGLVILTNAGGTLLPTYLANQIYDELLELESIDWHKRAVEDTKKMKEMMKEATESLPEQIKGTTPSHKLEDYTGTFEHPAYGTLQVYKRDDSLYVQFMEMDIQLGHHHYDIFSAKVDLFQMKMSLLFAYEMNVSGEFPSLQLHVPATLSTQPLTFKKIK", "soluble on expression in E. coli": "not soluble"}
{"sequence": "MSKILVIAEHRRNDLRPVSLELIGAANGLKKSGEDKVVVAVIGSQADAFVPALSVNGVDELVVVKGSSIDFDPDVFEASVSALIAAHNPSVVLLPHSVDSLGYASSLASKTGYGFATDVYIVEYQGDELVATRGGYNQKVNVEVDFPGKSTVVLTIRPSVFKPLEGAGSPVVSNVDAPSVQSRSQNKDYVEVGGGNDIDITTVDFIMSIGRGIGEETNVEQFRELADEAGATLCCSAPIADAGWLPKSRQVGQSGKVVGSCKLYVAMGISGSIQHMAGMKHVPTIIAVNTDPGASIFTIAKYGIVADIFDIEEELKAQLAA", "soluble on expression in E. coli": "soluble"}
{"sequence": "MSKKCLITGGAGFIGSHLAEELVGRGYNVTIVDNFYKGKNKYHDELMKEIRVIPISVLDKNSIYELVNQHDVVFHLAAILGVKTTMEKSIELIETNFDGTRNILQAALKGKKKVVFASTSEVYGKAKPPFSEEGDRLYGATSKIRWSYAICKTLEETLCLGYALEGLPVTIVRYFNIYGPRAKDGPYAGVIPRFISAALQGEDILVYGDGEQTRCFTYVSDAVEATIRAMDEKVNGEIINIGSENEKSIKEVAEVIKKLTDSSSKIVQVPFEEVYPHGFEEIPNRRPDVTKLKDLVQFQAKVTWEDGLKETIKWFREEDNG", "soluble on expression in E. coli": "soluble"}
{"sequence": "MSKKTLSTVNYQLSTDTMCLAIPGQVIEIREENGLKMGTVDISGALTKACLEYVPEIAIGQYTIVHAGFALKIIDEKEAAESLKLWDELIKSGAFDVDGELPPSPIQKPEA", "soluble on expression in E. coli": "not soluble"}
{"sequence": "MSKMTRHDAQLYELKKKIEELKKIRGRGTELISLYIPAGYDLSKVMQQLREEYSTAQNIKSKTTRKNVLGALERAMQHLKLYKQTPENGLALFVGNVSEIEGNTDIRLWAIIPPEPLNVRLYRCDQTFVTEPLEEMLRVKDAYGLITVEKNEATIGLLRGKRIELLDELTSNVPGKTRAGGQSARRYERIREQETHEFMKRIGEHANRAFLPLLEKGELKGIIIGGPGPTKEEFVEGEYLHHELKKKILGVVDISYHGEYGLRELVEKASDILRDHEVIREKKLVNEFLKHVVKDTGLATYGEREVRRALEIGAVDVLLISEGYNKVRVRVKCNHCGWEELKTMSEEEYEVYRKKITKCPKCGSQNLTIEKWDVAEELIKMAEEAGSDVEIISLDTEEGQQFYRAFGGLGAILRFKI", "soluble on expression in E. coli": "soluble"}
{"sequence": "MSKNCKSCKDLKNRGIDVDCCFEIGDKECASLGDDKGFNGKKNDCQDMHDLNDCLLGRADSALDIHDDCDWKGYLKKLVSTLYNLQKMTICAICGIWKKIHWIEEQIEKIWKKIAKMEDDIDNIASQNWEINTRYGIQESTKGMSVSINRGNGDFIFRWKDWGDAEQTQYLGEGEIRGTVNFGMRPSSNASFDWQVRDVVIQNLSYKTNNIRSVPFTLHLYLTRAGEQEIYTKSHDTTKSFNDNINKTLKLNNNGNVGISSSSGWLQFLEFFNDGPVADDRANLQIEFKNNGKPKPPRYI", "soluble on expression in E. coli": "not soluble"}
{"sequence": "MSKNIKTPTNQKVLTNVAVVRMKKTGKRFEIACYKNKVVNWRNKSEKDIDEVLQTHTVFSNVSKGQLSKKEELIAAFGIEDQLEICKIILDKGDLQVSEKERQAASDQSLKEVSQLIASMVVNPETKRPVPPSVIDKALQEMHFSLKPNRSSKQQALDAIPKLRETLKIERAKMKIRVAIPTKEAKSVHTKLKTLFSDVEVDDWQDGSLEMVGLIEPGSFRALDDLVRNETKGHGRLEILSLKDVVEGELQIS", "soluble on expression in E. coli": "soluble"}
{"sequence": "MSKNVGKLVKIWNESEVLVDRKSKFQARCCPLQNQKDIPSILQELTQNNKSVSKASHMHMYAWRTAEVSNNLHLQQEQKKKGNKANKSNNSHVNKSRNITVQPKNIEQGCADCGEAGAGQRLLTLLERANIFNVLVIVTRWYGGTPLGSSRFRHISTCAVETLKKGGFLP", "soluble on expression in E. coli": "soluble"}
{"sequence": "MSKRNTQQRRHNIIADLNAQGEVSVDSLAKQFDTSEVTIRKDLAALETSGLLLRRYGGAVALPSEITEAKVDQLSQQKLHIAKKAAMLIRDHNRIIIDSGQTTSALVSELANKKGLVVMTNALSIANEIHALENEPTLLMTGGTWDATSEAFQGQVAEQVLRSYDFDQLFIGADGIDIKRGTTTFNELIGLSRVMAEVAREVIVMVESAKITKKIPNLELNWQQIHTVITDDGLSEEMRIALTEQGVKLIIAKGLEHHHHHH", "soluble on expression in E. coli": "soluble"}
{"sequence": "MSKRRVVVTGMGMLSPVGNTVESSWKALLAGQSGIVNIEHFDTTNFSTRFAGLVKGFDCEQYMSKKDARKMDLFIQYGIAAGIQALEDSGLEVNEENAARIGVAIGSGIGGLELIETGHQALIEKGPRKVSPFFVPSTIVNMIAGNLSIMRGLRGPNIAISTACTTGLHNIGHAARMIAYGDADAMVAGGAEKASTPLGMAGFGAAKALSTRNDEPQKASRPWDKDRDGFVLGDGAGIMVLEEYEHAKARGAKIYAEVVGFGMSGDAYHMTSPSEDGSGGALAMEAAMRDAGVTGEQIGYVNAHGTSTPAGDVAEVKGIKRALGEAGTKQVLVSSTKSMTGHLLGAAGSVEAIITVMSLVDQMVPPTINLDNPEEGLGVDLVPHVARKVESMEYAMCNSFGFGGTNGSLIFKRM", "soluble on expression in E. coli": "not soluble"}
{"sequence": "MSKSVSIPQALSDLKRTSLRRLSSARGVGNKKTVVSTSTPLSGFVILVEREEKVVRLYGTAAERAGLSIGDEIVGVNDMKIEGKSYEEVTTYIQECIRRKIIQLKVRRRALEIPAENEASVFNCTNSNRMITDAYLVSVDKDHIKEVTKRLKK", "soluble on expression in E. coli": "not soluble"}
